Data reported in paper PMC8528075.

Molecular target: SARS-CoV-2 S2P spike (prefusion-stabilized trimer) (SARS-CoV-2 Wuhan-Hu-1)
Test: cryo-EM structure

Question: With 2–36 Fab as the substance, how does the stoichiometry N (Fabs per spike) read?
Answer: 3
